Data on 21 molecules can be found in US20250066503A1, “CELL INJURY INDUCING THERAPEUTIC DRUG FOR USE IN CANCER THERAPY” (CHUGAI SEIYAKU KABUSHIKI KAISHA, priority 2016, published 2025).

For the experiment, the target named is T1, soluble human CD3 epsilon chain (human, UniProt P07766 23-126).
T1 construct: also called CD3ε
As to the kind of experiment: SPR. On the technique in general: Surface plasmon resonance follows binding to a sensor surface in real time, without labels.

T1 sequence (P07766 23-126 limits assumed): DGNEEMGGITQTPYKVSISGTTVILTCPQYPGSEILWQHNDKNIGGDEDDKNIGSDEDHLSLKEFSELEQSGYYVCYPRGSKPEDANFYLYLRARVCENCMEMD

B1: TR01H067-E22Hh/none-Hi-Kn010G3/L0215-k0 (antibody, V domains shown)
VH: QVQLVESGGGLVQPGRSLRLSCAASGFTFSNAWMHWVRQAPGKGLEWVAQIKDKSQNYATYYAESVKGRFTISRDDSKNSLYLQMNSLKTEDTAVYYCRYVHYAASYGVDAWGQGTTVTVSS
VL: DIVMTQSPLSLPVTPGEPASISCRSSQPPVHSNRNTYIHWYQQKPGQAPRLLIYKVSNRFSGVPDRFSGSGSGTDFTLKISRVEAEDVGVYYCGQGTQVPYTFGQGTKLEIK
notes: one-arm
Regarding B1, the equilibrium dissociation constant (Kd) – broadly, the constant that tells how readily two partners part at equilibrium – amounted to 74.1 nM.

B2: TR01H067-E22Hh/none-Hi-Kn010G3/L0248-k0 (antibody, V domains shown)
VH: QVQLVESGGGLVQPGRSLRLSCAASGFTFSNAWMHWVRQAPGKGLEWVAQIKDKSQNYATYYAESVKGRFTISRDDSKNSLYLQMNSLKTEDTAVYYCRYVHYAASYGVDAWGQGTTVTVSS
VL: DIVMTQSPLSLPVTPGEPASISCRPSQSPVHSNRNTYIQWYQQKPGQAPRLLIYKVSNRFSGVPDRFSGSGSGTDFTLKISRVEAEDVGVYYCYQGTQVPYTFGQGTKLEIK
notes: one-arm
With B2, the affinity, expressed as Kd, was 139 nM.

B3: TR01H082-E22Hh/none-Hi-Kn010G3/L0267-k0 (antibody, V domains shown)
VH: QVQLVESGGGLVQPGRSLRLSCAASGFTFSNAWMHWVRQAPGKGLEWVAQIKDKSQNYATYYAESVKGRFTISRDDSKNSLYLQMNSLKTEDTAVYYCRYVHYAAGYGVDAWGQGTTVTVSS
VL: DIVMTQSPLSLPVTPGEPASISCRPSQSPVHSNRNTYLHWYQQKPGQAPRLLIYKVSNRFSGVPDRFSGSGSGTDFTLKISRVEAEDVGVYYCVQGTQVPYTFGQGTKLEIK
notes: one-arm
B3 showed a Kd of 22.9 nM.

B4: TR01H082-E22Hh/none-Hi-Kn010G3/L0268-k0 (antibody, V domains shown)
VH: QVQLVESGGGLVQPGRSLRLSCAASGFTFSNAWMHWVRQAPGKGLEWVAQIKDKSQNYATYYAESVKGRFTISRDDSKNSLYLQMNSLKTEDTAVYYCRYVHYAAGYGVDAWGQGTTVTVSS
VL: DIVMTQSPLSLPVTPGEPASISCRSSQSPVHSNRNTYIQWYQQKPGQAPRLLIYKVSNRFSGVPDRFSGSGSGTDFTLKISRVEAEDVGVYYCVQGTQVPYTFGQGTKLEIK
notes: one-arm
As for B4, the dissociation constant Kd was 136 nM.

B5: TR01H082-E22Hh/none-Hi-Kn010G3/L0266-k0 (antibody, V domains shown)
VH: QVQLVESGGGLVQPGRSLRLSCAASGFTFSNAWMHWVRQAPGKGLEWVAQIKDKSQNYATYYAESVKGRFTISRDDSKNSLYLQMNSLKTEDTAVYYCRYVHYAAGYGVDAWGQGTTVTVSS
VL: DIVMTQSPLSLPVTPGEPASISCRSSQPPVHSNRNTYLHWYQQKPGQAPRLLIYKVSNRFSGVPDRFSGSGSGTDFTLKISRVEAEDVGVYYCVQGTQVPYTFGQGTKLEIK
notes: one-arm
B5 returned an equilibrium dissociation constant (Kd) of 22.9 nM.

B6: TR01H082-E22Hh/none-Hi-Kn010G3/L0262-k0 (antibody, V domains shown)
VH: QVQLVESGGGLVQPGRSLRLSCAASGFTFSNAWMHWVRQAPGKGLEWVAQIKDKSQNYATYYAESVKGRFTISRDDSKNSLYLQMNSLKTEDTAVYYCRYVHYAAGYGVDAWGQGTTVTVSS
VL: DIVMTQSPLSLPVTPGEPASISCRSSQPPVHSNRNTYLHWYQQKPGQAPRLLIYKVSNRFSGVPDRFSGSGSGTDFTLKISRVEAEDVGVYYCAQGTQVPYTFGQGTKLEIK
notes: one-arm
On to B6, for which binding was put at a Kd of 39.8 nM.

B7: TR01H067-E22Hh/none-Hi-Kn010G3/TR01L016-k0 (antibody, V domains shown)
VH: QVQLVESGGGLVQPGRSLRLSCAASGFTFSNAWMHWVRQAPGKGLEWVAQIKDKSQNYATYYAESVKGRFTISRDDSKNSLYLQMNSLKTEDTAVYYCRYVHYAASYGVDAWGQGTTVTVSS
VL: DIVMTQSPLSLPVTPGEPASISCRSSQSPVHSNRNTYLHWYLQKPGQSPQLLIYKVSNRFSGVPDRFSGSGSGTDFTLKISRVEAEDVGVYYCYQGTQVPYTFGQGTKLEIK
notes: one-arm
Regarding B7, the affinity, expressed as Kd, was 10.9 nM.

B8: TR01H082-E22Hh/none-Hi-Kn010G3/L0263-k0 (antibody, V domains shown)
VH: QVQLVESGGGLVQPGRSLRLSCAASGFTFSNAWMHWVRQAPGKGLEWVAQIKDKSQNYATYYAESVKGRFTISRDDSKNSLYLQMNSLKTEDTAVYYCRYVHYAAGYGVDAWGQGTTVTVSS
VL: DIVMTQSPLSLPVTPGEPASISCRSSQSPVHSNRNTYIHWYQQKPGQAPRLLIYKVSNRFSGVPDRFSGSGSGTDFTLKISRVEAEDVGVYYCAQGTQVPYTFGQGTKLEIK
notes: one-arm
Molecule B8 had a dissociation constant Kd of 30.9 nM.

B9: TR01H067-E22Hh/none-Hi-Kn010G3/L0226-k0 (antibody, V domains shown)
VH: QVQLVESGGGLVQPGRSLRLSCAASGFTFSNAWMHWVRQAPGKGLEWVAQIKDKSQNYATYYAESVKGRFTISRDDSKNSLYLQMNSLKTEDTAVYYCRYVHYAASYGVDAWGQGTTVTVSS
VL: DIVMTQSPLSLPVTPGEPASISCRSSQSPVHSNRNTYIHWYQQKPGQAPRLLIYKVSNRFSGVPDRFSGSGSGTDFTLKISRVEAEDVGVYYCIQGTQVPYTFGQGTKLEIK
notes: one-arm
The molecule B9 gave a Kd of 132 nM.

B10: TR01H082-E22Hh/none-Hi-Kn010G3/L0258-k0 (antibody, V domains shown)
VH: QVQLVESGGGLVQPGRSLRLSCAASGFTFSNAWMHWVRQAPGKGLEWVAQIKDKSQNYATYYAESVKGRFTISRDDSKNSLYLQMNSLKTEDTAVYYCRYVHYAAGYGVDAWGQGTTVTVSS
VL: DIVMTQSPLSLPVTPGEPASISCRSSQPPVHSNRNTYLHWYQQKPGQAPRLLIYKVSNRFSGVPDRFSGSGSGTDFTLKISRVEAEDVGVYYCTQGTQVPYTFGQGTKLEIK
notes: one-arm
For the molecule B10, the equilibrium dissociation constant (Kd) came out at 47 nM.

B11: TR01H071-E22Hh/none-Hi-Kn010G3/L0200-k0 (antibody, V domains shown)
VH: QVQLVESGGGLVQPGRSLRLSCAASGFTFSNAWMHWVRQAPGKGLEWVAQIKDKSNNYATYYAESVKGRFTISRADSKNSIYLQMNSLKTEDTAVYYCRYVHYAASYGVDIWGQGTTVTVSS
VL: DIVMTQSPLSLPVTPGEPASISCRPSQSPVHSNRNTYLHWYQQKPGQAPRLLIYKVSNRFSGVPDRFSGSGSGTDFTLKISRVEAEDVGVYYCGQGTQVPYTFGQGTKLEIK
notes: one-arm
Take B11: the Kd was found to be 6.13 nM.

B12: TR01H081-E22Hh/none-Hi-Kn010G3/L0262-k0 (antibody, V domains shown)
VH: QVQLVESGGGLVQPGRSLRLSCAASGFTFSNAWMHWVRQAPGKGLEWVAQIKDKSQNYATYYAESVKGRFTISRADSKNSIYLQMNSLKTEDTAVYYCRYVHYAAGYGVDIWGQGTTVTVSS
VL: DIVMTQSPLSLPVTPGEPASISCRSSQPPVHSNRNTYLHWYQQKPGQAPRLLIYKVSNRFSGVPDRFSGSGSGTDFTLKISRVEAEDVGVYYCAQGTQVPYTFGQGTKLEIK
notes: one-arm
On to B12, for which binding was put at a Kd of 5.76 nM.

B13: TR01H067-E22Hh/none-Hi-Kn010G3/TR01L015-k0 (antibody, V domains shown)
VH: QVQLVESGGGLVQPGRSLRLSCAASGFTFSNAWMHWVRQAPGKGLEWVAQIKDKSQNYATYYAESVKGRFTISRDDSKNSLYLQMNSLKTEDTAVYYCRYVHYAASYGVDAWGQGTTVTVSS
VL: DIVMTQSPLSLPVTPGEPASISCRSSQSPVHSNRNTYLHWYLQKPGQSPQLLIYKVSNRFSGVPDRFSGSGSGTDFTLKISRVEAEDVGVYYCGQGTQVPYTFGQGTKLEIK
notes: one-arm
With B13, the Kd was determined as 86.4 nM.

B14: TR01H082-E22Hh/none-Hi-Kn010G3/L0260-k0 (antibody, V domains shown)
VH: QVQLVESGGGLVQPGRSLRLSCAASGFTFSNAWMHWVRQAPGKGLEWVAQIKDKSQNYATYYAESVKGRFTISRDDSKNSLYLQMNSLKTEDTAVYYCRYVHYAAGYGVDAWGQGTTVTVSS
VL: DIVMTQSPLSLPVTPGEPASISCRPSQSPVHSNRNTYLHWYQQKPGQAPRLLIYKVSNRFSGVPDRFSGSGSGTDFTLKISRVEAEDVGVYYCTQGTQVPYTFGQGTKLEIK
notes: one-arm
In the case of B14, binding was put at a Kd of 45.3 nM.

B15: TR01H071-E22Hh/none-Hi-Kn010G3/L0226-k0 (antibody, V domains shown)
VH: QVQLVESGGGLVQPGRSLRLSCAASGFTFSNAWMHWVRQAPGKGLEWVAQIKDKSNNYATYYAESVKGRFTISRADSKNSIYLQMNSLKTEDTAVYYCRYVHYAASYGVDIWGQGTTVTVSS
VL: DIVMTQSPLSLPVTPGEPASISCRSSQSPVHSNRNTYIHWYQQKPGQAPRLLIYKVSNRFSGVPDRFSGSGSGTDFTLKISRVEAEDVGVYYCIQGTQVPYTFGQGTKLEIK
notes: one-arm
On to B15, for which the Kd came out at 25.1 nM.

B16: TR01H082-E22Hh/none-Hi-Kn010G3/L0264-k0 (antibody, V domains shown)
VH: QVQLVESGGGLVQPGRSLRLSCAASGFTFSNAWMHWVRQAPGKGLEWVAQIKDKSQNYATYYAESVKGRFTISRDDSKNSLYLQMNSLKTEDTAVYYCRYVHYAAGYGVDAWGQGTTVTVSS
VL: DIVMTQSPLSLPVTPGEPASISCRPSQSPVHSNRNTYLHWYQQKPGQAPRLLIYKVSNRFSGVPDRFSGSGSGTDFTLKISRVEAEDVGVYYCAQGTQVPYTFGQGTKLEIK
notes: one-arm
B16: binding was put at a Kd of 34.4 nM.

B17: TR01H067-E22Hh/none-Hi-Kn010G3/L0262-k0 (antibody, V domains shown)
VH: QVQLVESGGGLVQPGRSLRLSCAASGFTFSNAWMHWVRQAPGKGLEWVAQIKDKSQNYATYYAESVKGRFTISRDDSKNSLYLQMNSLKTEDTAVYYCRYVHYAASYGVDAWGQGTTVTVSS
VL: DIVMTQSPLSLPVTPGEPASISCRSSQPPVHSNRNTYLHWYQQKPGQAPRLLIYKVSNRFSGVPDRFSGSGSGTDFTLKISRVEAEDVGVYYCAQGTQVPYTFGQGTKLEIK
notes: one-arm
The molecule B17 had a Kd of 49.2 nM.

B18: TR01H071-E22Hh/none-Hi-Kn010G3/L0215-k0 (antibody, V domains shown)
VH: QVQLVESGGGLVQPGRSLRLSCAASGFTFSNAWMHWVRQAPGKGLEWVAQIKDKSNNYATYYAESVKGRFTISRADSKNSIYLQMNSLKTEDTAVYYCRYVHYAASYGVDIWGQGTTVTVSS
VL: DIVMTQSPLSLPVTPGEPASISCRSSQPPVHSNRNTYIHWYQQKPGQAPRLLIYKVSNRFSGVPDRFSGSGSGTDFTLKISRVEAEDVGVYYCGQGTQVPYTFGQGTKLEIK
notes: one-arm
With B18, the Kd was 9.51 nM.

B19: TR01H067-E22Hh/none-Hi-Kn010G3/TR01L018-k0 (antibody, V domains shown)
VH: QVQLVESGGGLVQPGRSLRLSCAASGFTFSNAWMHWVRQAPGKGLEWVAQIKDKSQNYATYYAESVKGRFTISRDDSKNSLYLQMNSLKTEDTAVYYCRYVHYAASYGVDAWGQGTTVTVSS
VL: DIVMTQSPLSLPVTPGEPASISCQASESPVHSNRNTYLHWYLQKPGQSPQLLIYKVSNRFSGVPDRFSGSGSGTDFTLKISRVEAEDVGVYYCGQGTQVPYTFGQGTKLEIK
notes: one-arm
As for B19, the Kd is 52.6 nM.

B20: TR01H082-E22Hh/none-Hi-Kn010G3/L0259-k0 (antibody, V domains shown)
VH: QVQLVESGGGLVQPGRSLRLSCAASGFTFSNAWMHWVRQAPGKGLEWVAQIKDKSQNYATYYAESVKGRFTISRDDSKNSLYLQMNSLKTEDTAVYYCRYVHYAAGYGVDAWGQGTTVTVSS
VL: DIVMTQSPLSLPVTPGEPASISCRSSQSPVHSNRNTYIHWYQQKPGQAPRLLIYKVSNRFSGVPDRFSGSGSGTDFTLKISRVEAEDVGVYYCTQGTQVPYTFGQGTKLEIK
notes: one-arm
As for B20, binding was put at a Kd of 50.7 nM.

B21: TR01H082-E22Hh/none-Hi-Kn010G3/L0270-k0 (antibody, V domains shown)
VH: QVQLVESGGGLVQPGRSLRLSCAASGFTFSNAWMHWVRQAPGKGLEWVAQIKDKSQNYATYYAESVKGRFTISRDDSKNSLYLQMNSLKTEDTAVYYCRYVHYAAGYGVDAWGQGTTVTVSS
VL: DIVMTQSPLSLPVTPGEPASISCRSSQSLVHSNRQTYLHWYQQKPGQAPRLLIYKVSNRFSGVPDRFSGSGSGTDFTLKISRVEAEDVGVYYCGQGTQVPYTFGQGTKLEIK
notes: one-arm
B21 gave a dissociation constant Kd of 74.2 nM.
